B4: human IL-36γ, truncated (ligand)
chain: SMCKPITGTINDLNQQVWTLQGQNLVAVPRSDSVTPVTVAVITCKYPEALEQGRGDPIYLGIQNPEMCLYCEKVGEQPTLQLKEQKIMDLYGQPEPVKPFLFYRAKTGRTSTLESVAFPDWFIASSKRDQPIILTSELGKSYNTAFELNIND

For test [1], the target named is T1, cynomolgus IL-36α, truncated (cynomolgus macaque (Macaca fascicularis), UniProt Q9UHA7 14-158 (human entry), limits assumed).
T1 construct: Untagged after removal of the His-SUMO tag; also called cynomolgus IL-36 alpha; cyIL-36alpha
T1 chain: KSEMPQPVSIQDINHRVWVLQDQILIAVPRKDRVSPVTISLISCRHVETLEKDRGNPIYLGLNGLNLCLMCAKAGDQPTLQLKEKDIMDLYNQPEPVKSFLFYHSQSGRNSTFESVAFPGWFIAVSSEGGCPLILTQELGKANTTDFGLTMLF
Nature of the test: SPR, Biacore, 1:1 Langmuir fit; heads of c3 and c4 printed swapped. As for the experimental part:
(§1) The humanized antibodies obtained in Example 6 were tested for their binding to recombinant human or cynomolgus macaque IL36a and IL-36γ in Biacore assays. The association time was set to 60 seconds, and the final dissociation time was set to 600 seconds. Equilibrium dissociation constant KD (kd/ka) of exemplary antibodies was determined using a 1:1 Langmuir fit model (see Tables 17-18 below).
(SPR reads the build-up and loss of mass on a sensor chip optically.)

Test [2] deals with B4. The description is as above. The procedure:
as §1

Test [3] has as its target T2, cynomolgus IL-36γ, truncated (cynomolgus macaque (Macaca fascicularis), UniProt Q9NZH8 18-167 (human entry), limits assumed).
T2 construct: Untagged after removal of the His-SUMO tag; also called cynomolgus IL-36 gamma; cyIL-36gamma
T2 chain: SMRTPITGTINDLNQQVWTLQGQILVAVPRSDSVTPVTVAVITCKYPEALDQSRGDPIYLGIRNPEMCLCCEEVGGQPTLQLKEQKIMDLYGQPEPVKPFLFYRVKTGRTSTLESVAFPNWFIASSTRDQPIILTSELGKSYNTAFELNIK
The description is as above. The procedure: as §1

For test [4], the target named is T3, human IL-36α(R12), truncated (human, UniProt Q9UHA7 6-158).
T3 construct: Untagged after removal of the His-SUMO tag; also called hIL-36alpha
T3 chain: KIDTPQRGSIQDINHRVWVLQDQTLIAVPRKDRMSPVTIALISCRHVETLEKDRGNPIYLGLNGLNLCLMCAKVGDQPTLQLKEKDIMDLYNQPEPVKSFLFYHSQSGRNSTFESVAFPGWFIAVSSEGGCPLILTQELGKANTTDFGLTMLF
The test is described as above. The procedure: as §1

Test [5] deals with T1, cynomolgus IL-36α, truncated. Nature of the test: SPR, Biacore, 1:1 Langmuir fit. The procedure:
as §1

In test [6] the target is B4. The test is described as follows: SPR, Biacore, 1:1 Langmuir fit. The procedure:
as §1

Test [7] deals with T2, cynomolgus IL-36γ, truncated. The test is described as follows: SPR, Biacore, 1:1 Langmuir fit. As for the experimental part:
as §1

Test [8] addresses T3, human IL-36α(R12), truncated. Nature of the test: SPR, Biacore, 1:1 Langmuir fit. The procedure:
as §1

Test [9] has as its target B4. Nature of the test: cell-based or functional assay.
In test [10] the target is T4, human IL-36α (R&D Systems cat#6995-IL-010/CF) (human, UniProt Q9UHA7 6-158).
T4 sequence (looked up): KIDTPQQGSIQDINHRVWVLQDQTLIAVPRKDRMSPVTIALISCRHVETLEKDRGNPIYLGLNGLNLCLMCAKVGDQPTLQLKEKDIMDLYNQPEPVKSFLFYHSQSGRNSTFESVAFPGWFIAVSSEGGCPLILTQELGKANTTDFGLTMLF
The test is described as follows: cell-based or functional assay.

The target of test [11] is B4. Nature of the test: cell-based or functional assay. The source holds these as a separate data set.
Test [12] addresses B4. The test is described as follows: SPR, Biacore T200, antibody on chip, IL-36 as analyte, 1:1 Langmuir fit. The method in brief: (§2)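 Single-cycle kinetics: mouse/human chimeric or mouse antibodies captured (~200 RU) via anti-human or anti-mouse Fc on CM5, then increasing IL-36 concentrations injected, 300 s association, 1200 s dissociation. Alternatively ~2000 RU antibody amine-coupled, analyte 30 μL/min for 420 s, 3600 s dissociation, 25° C; double-referenced sensorgrams.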

Test [13] deals with T3, human IL-36α(R12), truncated. The test is described as above. The method in brief: as §2
Test [14] deals with B4. Nature of the test: cell-based or functional assay. The source holds these as a separate data set.
For test [15], the target named is T1, cynomolgus IL-36α, truncated. Nature of the test: cell-based or functional assay.
Test [16] deals with T3, human IL-36α(R12), truncated. The test is described as follows: cell-based or functional assay.
Test [17] addresses B4. Nature of the test: cell-based or functional assay. The source holds these as a separate data set.
The target of test [18] is T3, human IL-36α(R12), truncated. Nature of the test: cell-based or functional assay.
Test [19] concerns the target B4. The test is described as follows: cell-based or functional assay. The source holds these as a separate data set.
Test [20] deals with T2, cynomolgus IL-36γ, truncated. The test is described as follows: cell-based or functional assay.
The target of test [21] is T3, human IL-36α(R12), truncated. Nature of the test: ELISA binding screen and HaCaT assay. Background: ELISA stands for enzyme-linked immunosorbent assay.
In test [22] the target is T5, IL-36 receptor (heterodimer of IL-36R and IL-1RAcP) on human cells (human, UniProt Q9HB29 20-575; Q9NPH3 21-570).
T5 sequence (looked up) 1: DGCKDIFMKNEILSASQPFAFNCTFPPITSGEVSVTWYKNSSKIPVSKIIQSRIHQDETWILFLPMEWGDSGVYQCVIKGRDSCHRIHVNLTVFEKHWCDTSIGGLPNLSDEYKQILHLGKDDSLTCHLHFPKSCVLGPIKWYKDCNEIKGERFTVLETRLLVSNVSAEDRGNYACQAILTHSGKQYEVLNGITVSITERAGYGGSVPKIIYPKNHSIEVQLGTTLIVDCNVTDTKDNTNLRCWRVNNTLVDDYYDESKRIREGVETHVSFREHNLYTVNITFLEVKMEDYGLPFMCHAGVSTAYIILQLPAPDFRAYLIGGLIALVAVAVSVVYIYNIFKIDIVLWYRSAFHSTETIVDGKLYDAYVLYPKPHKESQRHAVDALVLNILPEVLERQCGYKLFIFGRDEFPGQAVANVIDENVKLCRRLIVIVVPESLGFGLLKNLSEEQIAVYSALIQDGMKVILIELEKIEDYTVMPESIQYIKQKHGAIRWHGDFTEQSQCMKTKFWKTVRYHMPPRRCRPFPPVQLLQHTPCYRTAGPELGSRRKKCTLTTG
T5 sequence (looked up) 2: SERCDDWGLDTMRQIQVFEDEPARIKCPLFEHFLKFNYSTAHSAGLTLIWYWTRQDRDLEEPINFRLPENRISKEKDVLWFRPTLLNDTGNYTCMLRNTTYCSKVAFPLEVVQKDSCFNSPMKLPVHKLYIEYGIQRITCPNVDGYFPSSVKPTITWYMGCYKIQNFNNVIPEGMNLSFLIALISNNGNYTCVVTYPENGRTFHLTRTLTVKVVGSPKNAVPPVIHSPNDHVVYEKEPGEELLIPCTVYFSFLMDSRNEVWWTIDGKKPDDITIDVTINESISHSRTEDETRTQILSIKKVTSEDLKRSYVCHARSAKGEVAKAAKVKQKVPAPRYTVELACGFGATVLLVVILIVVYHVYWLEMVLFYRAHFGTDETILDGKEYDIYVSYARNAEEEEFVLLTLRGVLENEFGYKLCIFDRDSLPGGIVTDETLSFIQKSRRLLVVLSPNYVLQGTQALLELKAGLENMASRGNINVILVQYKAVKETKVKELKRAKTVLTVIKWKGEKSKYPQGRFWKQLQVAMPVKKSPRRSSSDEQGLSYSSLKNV
Nature of the test: cell-based or functional assay.

B1: 144D464A LV7a HV10b (antibody, V domains shown)
VH: QVQLVQSGAEVKKPGASVKVSCKASGFNIKDTYIHWVRQAPGQGLEWIGRIDPAIGTTRYDPKFQGRATITTDTSTSTVYLEFSSLRSEDTAVYYCARLHYFGNNFFFDYWGQGTLVTVSS
VL: QAVVTQEPSLTVSPGGTVTLTCRSSSGAVTTSNYANWVQQKPGQAFAGLIGGTNDRAPGVPARFSGSLLGGKAALTISGAQPEDEADYFCALWFSNHWVFGGGTKLTVL
notes: Humanized; also called humanized 144D464A antibody LV7a HV10b
In the case of B1, the koff – broadly, the rate constant with which the complex falls apart – turned out to be 0.000451 s⁻¹ in test [1], 0.000451 s⁻¹ in test [2], 0.000523 s⁻¹ in test [3] and 0.000456 s⁻¹ in [4]. Further, the kon (as a rule, a measure of how fast the partners come together) in test [1] is 362000 M⁻¹ s⁻¹; in test [2], 343000 M⁻¹ s⁻¹; in test [3] it was 443000 M⁻¹ s⁻¹; in test [4] it was 219000 M⁻¹ s⁻¹. Besides, the Kd (commonly the equilibrium constant for the complex coming apart) in [5] is 1.25 nM; in test [6] it was 1.31 nM; in test [7] it was 1.18 nM; in [8] it was 2.09 nM. The “IC50 of IL-8 secretion (AlphaLISA), HaCaT, 10 nM human IL-36γ” value in test [9] was found to be 7.83 nM. Moreover, in test [10], the “IC50 of IL-8 secretion (AlphaLISA), HaCaT, 10 nM human IL-36α” value stood at 3.9 nM.

B2: 144D464A (antibody, V domains shown)
VH: EVQLQQSGAELVKPGASVRLSCTASGFNIKDTYIHWVKQRPEQGLEWIGRIDPAIGTTRYDPKFQGKATITTDTSSDTVHLQFSSLTSEDTAVYYCARLHYFGNNFFFDYWGQGTTLTVSS
VL: QAVVTQESALTTSPGEAVTLTCRSSSGAVTTSNYANWVQEKPDHLFAGLIGGTNDRAPGVPARFSGSLIGDKAALTITGAQTEDEAIYFCALWFSNHWVFGGGTKLTVL
notes: Mouse monoclonal from hybridoma; mouse IgG heavy and lambda light chain; also called mouse antibody 144D464A
On to B2, for which the koff stood at 0.000338 s⁻¹ in [1]; 0.00034 s⁻¹ in test [2]; 0.000427 s⁻¹ in test [3]; 0.000362 s⁻¹ in test [4]; 0.00032 s⁻¹ in test [12]; 0.000309 s⁻¹ in test [13]. Further, the kon in test [1] worked out at 465000 M⁻¹ s⁻¹; in test [2], 388000 M⁻¹ s⁻¹; in [3] it was 493000 M⁻¹ s⁻¹; in [4], 274000 M⁻¹ s⁻¹; in [12] it was 84000 M⁻¹ s⁻¹; in test [13], 122000 M⁻¹ s⁻¹. In addition, the Kd was determined as 0.727 nM in test [5]; 0.877 nM in test [6]; 0.865 nM in test [7]; 1.32 nM in test [8]; 3.81 nM in test [12]; 2.53 nM in test [13]. For the same molecule, in [11], the “IC50 (read off the curve)” value is roughly 8 nM. Also, in test [14], the “IC50 of IL-8 secretion, primary human monocytes, 6 nM human IL-36γ, FIG. 5C” value is 13.2 nM. For the same molecule, the “IC50 of IL-8 secretion, HaCaT, 10 nM cynomolgus IL-36α, FIG. 2A” value in [15] came to 5.3 nM. For the same molecule, in [16], the “IC50 of IL-8 secretion, HaCaT, 10 nM human IL-36α, FIG. 1B” value was found to be 6.49 nM. In addition, in [17], the “IC50 of IL-8 secretion, primary human keratinocytes, 8.4 nM human IL-36γ, FIG. 4D” value is 13.3 nM. For the same molecule, the “IC50 of IL-8 secretion, primary human keratinocytes, 8 nM human IL-36α, FIG. 4B” value in test [18] is 13.4 nM. The “IC50 of IL-8 secretion, HaCaT, 10 nM human IL-36γ, FIG. 1E” value in test [19] worked out at 7.39 nM. Besides, the “IC50 of IL-8 secretion, HaCaT, 10 nM cynomolgus IL-36γ, FIG. 2C” value in [20] worked out at 15.6 nM.

B3: 144L472A (antibody, V domains shown)
VH: EVQLQQSGAELVKPGASVKLSCTVSGFNIKDTYMYWVKQRPEQGLEWIGRIDPANGYAKYDPKFQGKATLTADTSSNTAYLQLSSLTSEDTAVYFCARFHWYDSAFYFDFWGQGTTLTVSS
VL: QAVVTQESALTTSPGETVTLTCRSSSGAVTTSNYANWVQEKPDHLFTGLIGGTNNRAPGVPARFSGSLIGDKAALTITGAQTEDEAIYFCGLWYSNHWVFGGGTKLTVL
notes: Mouse monoclonal from hybridoma; mouse IgG heavy and lambda light chain
B3: in test [12], binding was characterised by a dissociation constant (Kd) of 1000 nM, the koff is 0.00208 s⁻¹ and the kon was determined as 2070 M⁻¹ s⁻¹. In [14], the “IC50 of IL-8 secretion, primary human monocytes, 6 nM human IL-36γ, FIG. 5C” value worked out at 15.7 nM and the “IC50 of IL-8 secretion, primary human monocytes, 50 nM human IL-36γ, FIG. 5D” value is 40 nM. Further, the binding result in test [21] is listed as “binds”. In addition, the “IC50 of IL-8 secretion, HaCaT, 10 nM cynomolgus IL-36α, FIG. 2B” value in test [15] stood at 63.2 nM. The “IC50 of IL-8 secretion, HaCaT, 10 nM human IL-36γ, FIG. 1F” value in test [19] turned out to be 11.9 nM. Further, the “IC50 of IL-8 secretion, HaCaT, 10 nM cynomolgus IL-36γ, FIG. 2D” value in test [20] turned out to be 17.1 nM.
As to B4, the EC50 (read off the curve) (as a rule, the midpoint of the concentration-response curve) in [22] is roughly 1 nM.
